± gives the standard error. For some assays here: Variants at the floor of the assay were thinned out.
B1: glmS ribozyme (parent)
chain: AUAAAAGCGCCAGAACUACAGAAAUGUAGUUGACGAGGAGGAGGUUUAUCGAAUUUUCGGCGGAUGCCUCCAAA

Assays:
Conditions in all cases: with glucosamine-6-phosphate
glucosamine-6-phosphate [1] = variants of: B1; test: kcat; higher = faster cleavage; RNA array
In short: (§1)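 A hybridised Cy3 probe tracked barcoded ribozyme variants, transcribed in situ by E. coli RNA polymerase on sequenced MiSeq chips, at 37 °C. The variants received 40 μM to 10 mM glucosamine-6-phosphate in HEPES/KCl/Mg(OAc)2 buffer. kobs came from decay fits and kcat and KM from weighted Michaelis–Menten fits.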

glucosamine-6-phosphate [2] = variants of: B1; test: KM; higher = weaker cofactor use; RNA array
In short: as §1

glucosamine-6-phosphate [3] = variants of: B1; test: self-cleavage kobs at 10000 uM GlcN6P; higher = faster cleavage; RNA array
In short: as §1

glucosamine-6-phosphate [4] = variants of: B1; test: self-cleavage kobs at 640 uM GlcN6P; higher = faster cleavage; RNA array
In short: as §1

glucosamine-6-phosphate [5] = variants of: B1; test: self-cleavage kobs at 2500 uM GlcN6P; higher = faster cleavage; RNA array
In short: as §1

glucosamine-6-phosphate [6] = variants of: B1; test: self-cleavage kobs at 40 uM GlcN6P; higher = faster cleavage; RNA array
In short: as §1

glucosamine-6-phosphate [7] = variants of: B1; test: self-cleavage kobs at 160 uM GlcN6P; higher = faster cleavage; RNA array
In short: as §1

Variant | kcat (glucosamine-6-phosphate [1]) | KM (glucosamine-6-phosphate [2]) | self-cleavage kobs at 10000 uM GlcN6P (glucosamine-6-phosphate [3]) | self-cleavage kobs at 640 uM GlcN6P (glucosamine-6-phosphate [4]) | self-cleavage kobs at 2500 uM GlcN6P (glucosamine-6-phosphate [5]) | self-cleavage kobs at 40 uM GlcN6P (glucosamine-6-phosphate [6]) | self-cleavage kobs at 160 uM GlcN6P (glucosamine-6-phosphate [7])
G13C U31C G32U U65G C67U | 6.88e-05 ± 4.5e-06 s⁻¹ | 3040 ± 640 µM | 5.26e-05 ± 1.4e-05 s⁻¹ |  |  |  | 
A33G C67U | 2.01e-05 ± 2.6e-06 s⁻¹ | 1350 ± 420 µM |  |  |  |  | 
U57A C67G | 5.87e-05 ± 1.1e-05 s⁻¹ |  | 7.6e-05 ± 1.1e-05 s⁻¹ | 5.39e-05 ± 1.5e-05 s⁻¹ | 3.77e-05 ± 1.1e-05 s⁻¹ |  | 
U30C C58G C68A | 5.09e-05 ± 2.1e-05 s⁻¹ |  |  | 9.15e-05 ± 3.9e-05 s⁻¹ | 7.09e-05 ± 1.9e-05 s⁻¹ |  | 
A64U C70G | 1.26e-05 ± 2.6e-06 s⁻¹ |  |  |  |  | < 1e-05 s⁻¹ | 
G37A A53U | 0.00237 ± 0.00046 s⁻¹ | 3520 ± 930 µM | 0.00185 ± 0.00023 s⁻¹ | 0.000367 ± 3.5e-05 s⁻¹ | 0.000924 ± 0.0001 s⁻¹ | 4.73e-05 ± 1.1e-05 s⁻¹ | 9.91e-05 ± 1.2e-05 s⁻¹
A12G G32C C68G | 1.4e-05 ± 2.2e-06 s⁻¹ |  |  |  |  |  | 
G29A G32A | 0.00111 ± 7.1e-05 s⁻¹ | 2000 ± 220 µM | 0.000945 ± 0.00013 s⁻¹ | 0.000239 ± 6.2e-05 s⁻¹ | 0.000588 ± 0.00013 s⁻¹ | 2.33e-05 ± 8.5e-06 s⁻¹ | 8.75e-05 ± 1.7e-05 s⁻¹
C11G G66A | < 1e-05 s⁻¹ |  | < 1e-05 s⁻¹ | < 1e-05 s⁻¹ |  | < 1e-05 s⁻¹ | < 1e-05 s⁻¹
A52G C71U | 0.00186 ± 0.00014 s⁻¹ | 3440 ± 380 µM | 0.00138 ± 0.00012 s⁻¹ | 0.000293 ± 2.7e-05 s⁻¹ | 0.00078 ± 0.00015 s⁻¹ | 2.74e-05 ± 6e-06 s⁻¹ | 7.83e-05 ± 8.6e-06 s⁻¹
A15G C16U | 0.00689 ± 0.0016 s⁻¹ | 876 ± 320 µM | 0.00798 ± 0.0011 s⁻¹ | 0.00277 ± 0.00047 s⁻¹ | 0.00432 ± 0.00071 s⁻¹ | 0.000403 ± 5.8e-05 s⁻¹ | 0.000875 ± 0.00017 s⁻¹
G13C G40C | 4.48e-05 ± 2e-05 s⁻¹ |  |  |  |  | < 1e-05 s⁻¹ | < 1e-05 s⁻¹
A14U A15G G43A | 1.46e-05 ± 6.9e-06 s⁻¹ |  |  |  |  |  | 
A64U C67U | 5.93e-05 ± 6.4e-06 s⁻¹ |  | 5.31e-05 ± 6.3e-06 s⁻¹ |  | 5.62e-05 ± 8.7e-06 s⁻¹ |  | 
G41U A42G | 0.000998 ± 0.00021 s⁻¹ | 1240 ± 450 µM | 0.000843 ± 0.00012 s⁻¹ | 0.000285 ± 6.2e-05 s⁻¹ | 0.000816 ± 0.00012 s⁻¹ | 4.79e-05 ± 9.1e-06 s⁻¹ | 9.47e-05 ± 2e-05 s⁻¹
A14U U30A | 0.00136 ± 0.00037 s⁻¹ | 2250 ± 960 µM | 0.00134 ± 0.00021 s⁻¹ | 0.000337 ± 5.2e-05 s⁻¹ | 0.000564 ± 9.8e-05 s⁻¹ | 3.62e-05 ± 1e-05 s⁻¹ | 8.35e-05 ± 1.7e-05 s⁻¹
U55C C58A | 0.000437 ± 0.00015 s⁻¹ |  | 0.000455 ± 6.7e-05 s⁻¹ | 9.55e-05 ± 1.2e-05 s⁻¹ | 0.000175 ± 2.3e-05 s⁻¹ |  | 4.03e-05 ± 1.3e-05 s⁻¹
